Measurements reported in patent US20080213817A1, “Enhancement of Th2-Dependent and Inflammatory Response” (priority 2004, published 2008).

System: WT thymocytes
Test: Thymocyte proliferation, [3H] thymidine incorporation
Type: cell-based, mice
Details: anti-CD3 or anti-CD3+anti-CD28, 72 hrs, increasing amounts of IL-4
Method: For proliferation assays, purified thymocytes or CD4^+ or CD8^+ splenic T cells (2×10^5 cells/well) were cultured in round bottom 96-well plates (Costar) precoated with anti-CD3 antibody (BD Pharmingen) in the absence or presence of soluble anti-CD28 antibody (BD Pharmingen). After 3 days, cultures were pulsed for 6 hrs with 1 μCi [^3H] thymidine (New England Nuclear) per well and cells were harvested. [^3H] thymidine incorporation was measured by scintillation counting. When indicated, either recombinant IL-4 or neutralizing anti-IL-4 antibody (R&D Systems) were added prior to [^3H] thymidine labeling.
For proliferation assays, purified thymocytes (2×10^5 cells/well) were cultured in round bottom 96-well plates (Costar) precoated with anti-CD3 antibody (BD Pharmingen) in the absence or presence of soluble anti-CD28 antibody (BD Pharmingen). […] [^3H] thymidine incorporation was measured by scintillation counting. […]
The effect of the Mekk1^KD mutation on activation of JNK and other MAPKs in response to TCR and CD28 engagement was investigated. • A. WT and Mekk1^KD thymocytes were incubated with anti-CD3 (10 μg/ml) and anti-CD28 (1 μg/ml). At the indicated times, JNK activity was measured by an immunecomplex kinase assay using GST-c-Jun(1-79) as the substrate. Phosphorylated c-Jun was detected by autoradiography and quantitated using a PhosphorImager. […] Cell proliferation was measured as above. […]

B1: IL-4: recombinant IL-4 (R&D Systems), added exogenously (protein, UniProt P05112 25-153, looked up)
Interleukin-4: HKCDITLQEIIKTLNSLTEQKTLCTELTVTDIFAASKNTTEKETFCRAATVLRQFYSHHEKDTRCLGATAQQFHRHKQLIRFLKRLDRNLWGLAGLNSCPVKEANQSTLENFLERLKTIMREKYSKCSS
In the case of B1, the “proliferative response of WT thymocytes on addition of exogenous IL-4” value is reported as “strongly potentiated”.
